According to article PMC9600339, “Calpain-1: a Novel Antiviral Host Factor Identified in Porcine Small Intestinal Mucus” (mBio, 2022):
Several values for one entry are separate records, joined by “and”; a condition that tells them apart may be missing. Equal entries are not always repeated.

What was measured:
[1] = target: porcine calpain-1 (pig (Sus scrofa)) (UniProt P35750); assay: SPR; calpain-1 immobilised on a CM5 chip by amino coupling (8,860 RU); PEDV S1 protein injected at 100 to 0.8 uM; room temperature; running buffer pH 5.4, 25 mM HEPES, 100 mM NaCl, 3 mM EDTA with 5 mM CaCl2; 1:1 Langmuir model; average KD of triplicates
[2] = target: recombinant S1 protein of PEDV strain CV777 (S1 domain of the spike protein) (porcine epidemic diarrhea virus, …, UniProt Q91AV1 1-1319, Expressed in a prokaryotic system, so not glycosylated. Construct limits are not printed: S1 is taken by convention as ending at residue 789, with the signal peptide 1-25 removed per UniProt.); assay: as above; conditions: both partners purified

Molecule: protein S1Δb1: PEDV S1 (CV777) lacking the b1 domain (N297 to A337) (from UniProt Q91AV1 1-1319) (domain or fragment)
- Kd [1]: 198000 nM

Molecule: recombinant S1 protein of PEDV strain OH851 (S1 domain of the spike protein) (domain or fragment)
- Kd [1]: 787 nM

B1: porcine calpain-1 (enzyme, pig (Sus scrofa), UniProt P35750 1-714, looked up)
chain: MAEEVITPVYCTGVSAQVQKLRAKELGLGRHENAIKYLGQDYEQLRAHCLQSGSLFRDEAFPPVPQSLGFKELGPNSSKTYGVKWKRPTELFSNPQFIVDGATRTDICQGALGDCWLLAAIASLTLNDTLLHRVVPHGQSFQNGYAGIFHFQLWQFGEWVDVVVDDLLPTKDGKLVFVHSAQGNEFWSALLEKAYAKVNGSYEALSGGSTSEGFEDFTGGVTEWYELRKAPSDLYSIILKALERGSLLGCSIDISSVLDMEAVTFKKLVKGHAYSVTGAKQVNYQGQMVNLIRMRNPWGEVEWTGAWSDGSSEWNGVDPYQRDQLRVRMEDGEFWMSFRDFLREFTRLEICNLTPDALKSQRVRNWNTTLYEGTWRRGSTAGGCRNYPATFWVNPQFKIRLEETDDPEDDYGGRESGCSFVLALMQKHRRRERRFGRDMETIGFAVYEVPPELVGQPVHLKRDFFLANASRARSEQFINLREVSTRFRLPPGEYVVVPSTFEPNKEGDFVLRFFSEKKAGTQELDDQVQAILPDEQVLSEEEIDENFKALFRQLAGEDMEISVRELRTILNRIISKHKDLRTKGFSLESCRSMVNLMDRDGNGKLGLVEFNILWNRIRNYLSIFRKFDLDKSGSMSAYEMRMAIESAGFKLNKKLFELIITRYSEPDLAVDFDNFVCCLVRLETMFRFFKTLDTDLDGVVTFDLFKWLQLTMFA
notes: calpain-1 (catalytic subunit), pig (Sus scrofa); The discussion says in general that calpain-1 is a heterodimer of a catalytic subunit and a regulatory subunit (CAPNS1); also called CAP; p-calpain-1; source: calpain-1 purified from porcine small intestinal mucus fraction III on an antibody column; recombinant p-calpain-1 from HEK 293F, Ni-NTA
- Kd [2]: 1070 nM and 2500 nM
